Measured values published in patent publication US20250361274A1, “PEPTIDE AND PEPTIDE-CONTAINING AGENT” (PEPTIDREAM INC., priority 2022, published 2025).
Numbered stars: 1 amine (or outer) side, 2 acyl side, 3 side chain; on linkers, the order of the positions; unused ones are H or OH. Square brackets hold non-standard residues; d marks the D form. Ends that are not written are not given here. KCOpipzaa = N6-(4-(carboxymethyl)piperazine-1-carbonyl)-L-lysine, O=C(NCCCC[C@H](N[*:1])C(=O)[*:2])N1CCN(CC(=O)[*:3])CC1; F4aao = (S)-2-amino-3-(4-(carboxymethoxy)phenyl)propanoic acid, O=C([C@H](Cc1ccc(OCC(=O)[*:3])cc1)N[*:1])[*:2]; 3Pal(6-Ph) = N[C@@H](Cc1ccc(-c2ccccc2)nc1)C(=O)O; Phe(4-COOH) = N[C@@H](Cc1ccc(C(=O)O)cc1)C(=O)O; Bip = N[C@@H](Cc1ccc(-c2ccccc2)cc1)C(=O)O; Abu(4,4,4-F3) = N[C@@H](CC(F)(F)F)C(=O)O; Ala(4-THP) = N[C@@H](CC1CCOCC1)C(=O)O; Hyp = O=C(O)[C@@H]1C[C@@H](O)CN1; 4Pal = N[C@@H](Cc1ccncc1)C(=O)O; Gly(cPr) = N[C@H](C(=O)O)C1CC1; βAla = NCCC(=O)O

Experiments:
BMP7 = target: T1, BMP7 (Homo sapiens, UniProt P18075); assay: BMP7 signal transduction inhibitory activity: SMAD1 phosphorylation by BMP7 stimulus, A549 cells; format: cell-based; settings: BMP7 10 nM stimulus, class symbols
T1 sequence (P18075 293-431): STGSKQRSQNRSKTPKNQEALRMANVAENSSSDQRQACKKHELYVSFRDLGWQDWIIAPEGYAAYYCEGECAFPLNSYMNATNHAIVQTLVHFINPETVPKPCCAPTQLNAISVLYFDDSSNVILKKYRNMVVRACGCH
Outline: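 Inhibition was measured as loss of BMP7-induced SMAD1 phosphorylation, using 10 nM BMP7 on A549 cells. Most peptides were given as three-concentration sets, such as 1/10/100, 10/100/1,000, 100/300/1,000 or 10/30/90 nM. Others were given as eight 1/3-ratio dilutions from 100 or 1,000 nM, alongside Noggin as control.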

BMP4 = target: T2, BMP4 (Homo sapiens, UniProt P12644); assay: BMP4 signal transduction inhibitory activity: SMAD1 phosphorylation by BMP4 stimulus, AlphaLISA SureFire, A549 cells; format: cell-based; settings: BMP4 0.2 nM stimulus; peptide conc. in assay 0.02, 0.2, 2 nM; class symbols
T2 sequence (P12644 293-408): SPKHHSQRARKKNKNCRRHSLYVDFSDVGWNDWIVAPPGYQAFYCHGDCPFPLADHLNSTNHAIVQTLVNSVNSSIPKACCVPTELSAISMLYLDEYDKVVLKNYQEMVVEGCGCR

[1] = peptide conc. in assay 10, 100, 1000 nM
[2] = peptide conc. in assay 100, 300, 1000 nM

| Substance | aLIZA BMP7 (10 nM) % inh (BMP7; [1]) | aLIZA BMP4 (0.2 nM) % inh (BMP4) | aLIZA BMP7 (10 nM) % inh (BMP7; [2]) |
| --- | --- | --- | --- |
| 266 (QRVYVDR[3Pal(6-Ph)]SYV[Bip][4Pal][Phe(4-COOH)][Phe(4-COOH)]SCG-NH2; not fully specified) [compound 266] | ND (the inhibitory activity was less than 30% at the maximum concentration evaluated) | C (showed less than 30% of inhibitory activity in 0.2 nM-addition zone and showed 30% or more of inhibitory activity in 2 nM-addition zone) | – |
| 270 (QRV[F4aao]VDR[3Pal(6-Ph)]SYV[Bip][4Pal][Phe(4-COOH)][Phe(4-COOH)]SCG-NH2; not fully specified) [compound 270] | ND (the inhibitory activity was less than 30% at the maximum concentration evaluated) | C (showed less than 30% of inhibitory activity in 0.2 nM-addition zone and showed 30% or more of inhibitory activity in 2 nM-addition zone) | – |
| 271 (ERV[Phe(4-COOH)][Abu(4,4,4-F3)]DR[3Pal(6-Ph)]SYV[Bip][4Pal][Phe(4-COOH)][Phe(4-COOH)]SCG-NH2) [compound 271] | ND (the inhibitory activity was less than 30% at the maximum concentration evaluated) | C (showed less than 30% of inhibitory activity in 0.2 nM-addition zone and showed 30% or more of inhibitory activity in 2 nM-addition zone) | – |
| 272 (ERV[Phe(4-COOH)][Gly(cPr)]DR[3Pal(6-Ph)]SYV[Bip][4Pal][Phe(4-COOH)][Phe(4-COOH)]SCG-NH2; not fully specified (N-terminus, bridges)) [compound 272] | ND (the inhibitory activity was less than 30% at the maximum concentration evaluated) | C (showed less than 30% of inhibitory activity in 0.2 nM-addition zone and showed 30% or more of inhibitory activity in 2 nM-addition zone) | – |
| 273 (ERV[Phe(4-COOH)]VDR[3Pal(6-Ph)][KCOpipzaa]YV[Bip][4Pal][Phe(4-COOH)][Phe(4-COOH)]SCG-NH2; not fully specified) [compound 273] | ND (the inhibitory activity was less than 30% at the maximum concentration evaluated) | C (showed less than 30% of inhibitory activity in 0.2 nM-addition zone and showed 30% or more of inhibitory activity in 2 nM-addition zone) | – |
| 275 (ERV[Phe(4-COOH)]VDR[3Pal(6-Ph)][KCOpipzaa]Y[Hyp][Bip]Y[Phe(4-COOH)][Phe(4-COOH)]SCG-NH2; not fully specified) [compound 275] | – | B (showed less than 30% of inhibitory activity in 0.02 nM-addition zone and showed 30% or more of inhibitory activity in 0.2 nM-addition zone) | G (showed less than 30% of inhibitory activity in 100 nM-addition zone and showed 30% or more of inhibitory activity in 300 nM-addition zone) |
| 276 (ERV[Phe(4-COOH)]V[KCOpipzaa]R[3Pal(6-Ph)][KCOpipzaa]Y[Hyp][Bip][4Pal][Phe(4-COOH)][Phe(4-COOH)]SCG-NH2; not fully specified) [compound 276] | – | B (showed less than 30% of inhibitory activity in 0.02 nM-addition zone and showed 30% or more of inhibitory activity in 0.2 nM-addition zone) | ND (the inhibitory activity was less than 30% at the maximum concentration evaluated) |
| 278 (E[KCOpipzaa]V[Phe(4-COOH)]V[KCOpipzaa]R[3Pal(6-Ph)][KCOpipzaa]Y[Hyp][Bip][4Pal][Phe(4-COOH)][Phe(4-COOH)]SCG-NH2; not fully specified) [compound 278] | – | C (showed less than 30% of inhibitory activity in 0.2 nM-addition zone and showed 30% or more of inhibitory activity in 2 nM-addition zone) | ND (the inhibitory activity was less than 30% at the maximum concentration evaluated) |
| 280 (ERV[Phe(4-COOH)]VDR[3Pal(6-Ph)][KCOpipzaa]Y[Hyp][Bip][4Pal][Phe(4-COOH)][Phe(4-COOH)]SC[βAla]) [compound 280] | – | B (showed less than 30% of inhibitory activity in 0.02 nM-addition zone and showed 30% or more of inhibitory activity in 0.2 nM-addition zone) | H (showed less than 30% of inhibitory activity in 300 nM-addition zone and showed 30% or more of inhibitory activity in 1,000 nM-addition zone) |
| 281 (ERV[Phe(4-COOH)]VDR[3Pal(6-Ph)][KCOpipzaa]YV[Bip][4Pal][Phe(4-COOH)][Phe(4-COOH)]SC[βAla]) [compound 281] | – | C (showed less than 30% of inhibitory activity in 0.2 nM-addition zone and showed 30% or more of inhibitory activity in 2 nM-addition zone) | ND (the inhibitory activity was less than 30% at the maximum concentration evaluated) |
| 283 (ERV[Phe(4-COOH)]V[KCOpipzaa]R[3Pal(6-Ph)][KCOpipzaa]Y[Hyp][Bip][4Pal][Phe(4-COOH)][Phe(4-COOH)]SC[βAla]) [compound 283] | – | B (showed less than 30% of inhibitory activity in 0.02 nM-addition zone and showed 30% or more of inhibitory activity in 0.2 nM-addition zone) | H (showed less than 30% of inhibitory activity in 300 nM-addition zone and showed 30% or more of inhibitory activity in 1,000 nM-addition zone) |
| 284 (ERV[Phe(4-COOH)]V[KCOpipzaa]R[3Pal(6-Ph)][KCOpipzaa]YV[Bip][4Pal][Phe(4-COOH)][Phe(4-COOH)]SC[βAla]) [compound 284] | – | C (showed less than 30% of inhibitory activity in 0.2 nM-addition zone and showed 30% or more of inhibitory activity in 2 nM-addition zone) | ND (the inhibitory activity was less than 30% at the maximum concentration evaluated) |
| 285 (E[KCOpipzaa]V[Phe(4-COOH)]V[KCOpipzaa]R[3Pal(6-Ph)][KCOpipzaa]Y[Hyp][Bip][4Pal][Phe(4-COOH)][Phe(4-COOH)]SC[βAla]) [compound 285] | – | C (showed less than 30% of inhibitory activity in 0.2 nM-addition zone and showed 30% or more of inhibitory activity in 2 nM-addition zone) | H (showed less than 30% of inhibitory activity in 300 nM-addition zone and showed 30% or more of inhibitory activity in 1,000 nM-addition zone) |
| 286 (ERV[Phe(4-COOH)]VDR[3Pal(6-Ph)][KCOpipzaa]Y[Hyp][Bip][4Pal][Phe(4-COOH)][Phe(4-COOH)]SC[βAla][dE]-OH; not fully specified (N-terminus, bridges); also: cyclic peptide, ring not given here) [compound 286] | – | B (showed less than 30% of inhibitory activity in 0.02 nM-addition zone and showed 30% or more of inhibitory activity in 0.2 nM-addition zone) | G (showed less than 30% of inhibitory activity in 100 nM-addition zone and showed 30% or more of inhibitory activity in 300 nM-addition zone) |
| 287 (ERV[Phe(4-COOH)][Ala(4-THP)][KCOpipzaa]R[3Pal(6-Ph)][KCOpipzaa]Y[Hyp][Bip][4Pal][Phe(4-COOH)][Phe(4-COOH)]SCG-NH2; not fully specified (N-terminus, bridges); also: cyclic peptide, ring not given here) [compound 287] | – | C (showed less than 30% of inhibitory activity in 0.2 nM-addition zone and showed 30% or more of inhibitory activity in 2 nM-addition zone) | H (showed less than 30% of inhibitory activity in 300 nM-addition zone and showed 30% or more of inhibitory activity in 1,000 nM-addition zone) |
